Results reported in article doi:10.1101/2021.04.05.438428.

Target: microtubule (MT) of HeLa cells (human (endogenous in HeLa)) (UniProt P68363)
Test: single-molecule live-cell imaging

Chain of UniProt P68363 (P68363 whole entry): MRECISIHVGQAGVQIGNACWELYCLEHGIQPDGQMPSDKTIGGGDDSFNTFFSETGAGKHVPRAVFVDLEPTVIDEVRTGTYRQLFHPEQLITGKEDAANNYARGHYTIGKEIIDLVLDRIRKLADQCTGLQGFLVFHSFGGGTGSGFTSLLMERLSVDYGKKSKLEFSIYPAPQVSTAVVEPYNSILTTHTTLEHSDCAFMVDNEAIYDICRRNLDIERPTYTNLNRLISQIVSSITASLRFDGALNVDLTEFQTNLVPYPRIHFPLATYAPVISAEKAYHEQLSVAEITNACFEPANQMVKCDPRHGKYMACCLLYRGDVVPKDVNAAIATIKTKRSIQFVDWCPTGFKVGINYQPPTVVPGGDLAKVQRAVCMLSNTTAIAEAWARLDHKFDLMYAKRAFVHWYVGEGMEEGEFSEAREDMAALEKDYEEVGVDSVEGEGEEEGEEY

- koff: 1.7 s⁻¹
- mean residence time: 0.55 s
Substance: mouse dynein heavy chain (DYNC1H1) tagged with GFP (from UniProt Q9JHU4 1-4644) (natural protein)
